Reference: US10676765B2, “Methods for producing 3-hydroxy-3-methylbutyric acid” (Global Bioenergies, priority 2015, dated 2020)

How the values were obtained:
Format in all cases: biochemical
[1] = Enzyme-catalyzed hydrolysis of 3-methylcrotonyl-CoA into 3-methylcrotonic acid and free coenzyme A; conditions: 10 mM 3-methylcrotonyl-CoA, 1 mg/ml thioesterase, 30 min, 30° C.
Source text: The gene coding for acyl-CoA thioesterase II from Pseudomonas putida was synthesized according to the procedure as described in Example 1.
The vector pCA24N which contained the gene encoding acyl-CoA thioesterase 2 (TesB) from Escherichia coli was purchased from NAIST (Nara Institute of Science and Technology, Japan, ASKA collection). This vector provided contained a stretch of 6 histidine codons after the methionine initiation codon.
The corresponding enzymes were produced according to the procedure described in Example 1.
(§1) The enzymatic assays were conducted in a total reaction volume of 0.2 ml.
(§2) The standard reaction mixture contained:
10 mM 3-methylcrotonyl-CoA (Sigma-Aldrich)
1 mg/ml of purified recombinant thioesterase.
Control assays were performed in which either no enzyme was added or no substrate was added.
The assays were incubated for 30 min with shaking at 30° C., the reactions were stopped by the addition of 0.1 ml of acetonitrile and the samples were then analyzed by HPLC-based procedure.
HPLC analysis was performed using an 1260 Infinity LC System (Agilent), equipped with a column heating module and a UV detector (210 nm). […] The separation was performed using mixed A (H2O containing 8.4 mM sulfuric acid) and B (acetonitrile) solutions in a linear gradient (0% B at initial time 0 min→70% B at 8 min). […]

[2] = Enzyme-catalyzed hydrolysis of 3-hydroxyisovaleryl-CoA into 3-hydroxyisovaleric acid; conditions: 10 mM 3-hydroxyisovaleryl-CoA, 1 mg/ml thioesterase, 30 min, 30° C.
Procedure: The gene coding for acyl-CoA thioesterase II from Pseudomonas putida was synthesized and the corresponding enzymes were further produced according to the procedure described in Example 1.
Provided vectors contained a stretch of 6 histidine codons after the methionine initiation codon. The corresponding enzymes were further produced according to the procedure described in Example 1.
(§3) The enzymatic assays were conducted in total reaction volume of 0.2 ml
as §2
10 mM 3-hydroxyisovaleryl-CoA
1 mg/ml of purified thioesterase
The assays were incubated for 30 min with shaking at 30° C. and the reactions were stopped by the addition of 0.1 ml of acetonitrile. The amount of 3-hydroxyisovaleryl-CoA was quantified according to HPLC-based procedure described in Example 3.
In these conditions, the 3-hydroxyisovaleryl-CoA retention time was 4.40 min and coenzyme A (CoA) retention time was 3.96 min.
Additionally, 3-hydroxyisovaleric acid production was analyzed according to the procedure described en Example 6.

[3] = Kinetic studies of the hydration reaction of 3-methylcrotonyl-CoA; conditions: 0-4 mM 3-methylcrotonyl-CoA, 0.01 mg/ml enzyme, 30° C., pH 7.0
Procedure: as §3, §2
0-4 mM 3-methylcrotonyl-CoA
0.01 mg/ml 3-hydroxypropionyl-CoA dehydratase from Metallosphaera sedula.
Assays were incubated for 0, 2, 4, 8, 16 min with shaking at 30° C. and the reactions were stopped by the addition of 100 μl of acetonitrile. The amount of 3-hydroxyisovaleryl-CoA was quantified according to HPLC-based procedure described in Example 3.
The graph depicting 3-hydroxyisovaleryl-CoA formation as a function of time at different substrate concentrations is shown in the FIG. 15.

[4] = Conversion of 3-hydroxyisovaleryl-CoA and ADP into 3-hydroxyisovaleric acid and ATP, phosphate butyryltransferase from Bacillus subtilis with butyrate kinases; conditions: 4 mM 3-hydroxyisovaleryl-CoA, 4 mM ADP, 0.2 mg/ml each enzyme, 20 min, 30° C.
Procedure: as §1, §2
(§4) 50 mM potassium phosphate buffer pH 7.5
4 mM 3-hydroxyisovaleryl-CoA
(§5) 0.2 mg/ml of purified phosphate butyryltransferase from Bacillus subtilis
(§6) 0.2 mg/ml of purified butyrate kinase from Lactobacillus casei or Geobacillus sp.
A series of controls were performed in parallel (Assays C-H; Table 4).
The assays were then incubated for 20 min with shaking at 30° C.
(§7) After an incubation period, the reactions were stopped by heating the reaction medium 4 min at 90° C. The samples were centrifuged, filtered through a 0.22 μm filter and the clarified supernatants were transferred into a clean vial for further analysis. The consumption of ADP and 3-hydroxyisovaleryl-CoA, and the formation of ATP, 3-hydroxyisovaleric acid and free coenzyme A (CoA-SH) were followed by using HPLC-based methods.
HPLC analysis was performed using 1260 Infinity LC System (Agilent), equipped with column heating module and RI detector. 2 μl of samples were separated on Polaris C18-A column (150×4.6 mm, 5 μm particle size, column temp. 30° C.) with a mobile phase flow rate of 1.5 ml/min. The separation was performed using 8.4 mM sulfuric acid in H2O/MeOH mixed solution (99/1) (V/V). In these conditions, the retention time of ADP, ATP and 3-hydroxyisovaleric acid were 2.09 min, 2.26 min and 5.01 min, respectively. […]

[5] = Conversion of 3-methylcrotonyl-CoA and ADP into 3-methylcrotonic acid and ATP, phosphate butyryltransferase from Bacillus subtilis with butyrate kinases; conditions: 4 mM 3-methylcrotonyl-CoA, 4 mM ADP, 0.2 mg/ml each enzyme, 20 min, 30° C.
Procedure: as §1, §2, §4
4 mM 3-methylcrotonyl-CoA
as §5, §6
Assays were then incubated for 20 min with shaking at 30° C.
as §7, with “3-methylcrotonyl-CoA,” for “3-hydroxyisovaleryl-CoA,”, “3-methylcrotonic” for “3-hydroxyisovaleric”
HPLC analysis was performed using the 1260 Infinity LC System (Agilent) equipped with a column heating module and an RI detector. 2 μl of samples were separated on a Polaris C18-A column (150×4.6 mm, 5 μm particle size, column temp. 30° C.) with a mobile phase flow rate of 1.5 ml/min. The consumption of ADP and the formation of ATP were followed by HPLC analysis according to the methods described in Example 10.
HPLC analysis was performed using the 1260 Infinity LC System (Agilent) equipped with a column heating module and a UV detector (260 nm). […]

[6] = Formation of 3-hydroxyisovaleryl phosphate from 3-hydroxyisovaleryl-CoA and phosphate (MS); conditions: 10 mM 3-hydroxyisovaleryl-CoA, mass spectrometry
Procedure: The studied enzymatic reaction was carried out under the following conditions:
10 mM 3-hydroxyisovaleryl-CoA (3-hydroxy-3-methylbutyryl-CoA)
The purified phosphate butyryltransferase from B. subtilis was resuspended in 5 mM potassium phosphate pH 7.5.
A control assay without enzyme was performed in parallel.
The enzymatic assay was initiated by the addition of 20 μl of enzyme preparation into 20 μl of reaction mixture. The formation of 3-hydroxyisovaleryl phosphate (3-hydroxy-3-methylbutyryl phosphate) was analyzed by Mass Spectrometry (MS). 5 μl of the assay was introduced into the mass spectrometer via a loop injection.
Flow injection analyses were performed using a Dionex Ultimate chromatographic system (Thermo Fisher Scientific) at a flow rate of 100 μL/min with a mobile phase composed of H2O containing 10 mM ammonium formate pH 9.45 and acetonitrile 75:25 v/v. Detection was performed with a Q-exactive spectrometer (Thermo Fisher Scientific) fitted with an electrospray ionization source (negative ionization mode at a resolution of 70000 m/Δm, FWHM at m/z 200). Non-resonant induced dissociation experiments—Higher-energy C-trap dissociation (HCD)—were acquired at normalized collision energy of 10%. Raw data were manually inspected using the Qualbrowser module of Xcalibur version 3.0 (Thermo Fisher Scientific). […]

B1: tesB Escherichia coli: acyl-CoA thioesterase 2 from E. coli, Uniprot P0AGG2 (protein, listed as Escherichia coli)
chain: MSQALKNLLTLLNLEKIEEGLFRGQSEDLGLRQVFGGQVVGQALYAAKETVPEERLVHSFHSYFLRPGDSKKPIIYDVETLRDGNSFSARRVAAIQNGKPIFYMTASFQAPEAGFEHQKTMPSAPAPDGLPSETQIAQSLAHLLPPVLKDKFICDRPLEVRPVEFHNPLKGHVAEPHRQVWIRANGSVPDDLRVHQYLLGYASDLNFLPVALQPHGIGFLEPGIQIATIDHSMWFHRPFNLNEWLLYSVESTSASSARGFVRGEFYTQDGVLVASTVQEGVMRNHN
modifications: strain K12
notes: acyl-CoA thioesterase 2 from E. coli, Uniprot P0AGG2
- 3-methylcrotonic acid produced [1]: 0.6 mM
- Conversion, % [2]: 52%

B2: 3-Hydroxypropionyl-CoA dehydratase from Metallosphaera sedula: recombinant His-tagged 3-hydroxypropionyl-CoA dehydratase (EC 4.2.1.116) from Metallosphaera sedula, Uniprot A4YI89 (protein, listed as Metallosphaera sedula)
chain: MEFETIETKKEGNLFWITLNRPDKLNALNAKLLEELDRAVSQAESDPEIRVIIITGKGKAFCAGADITQFNQLTPAEAWKFSKKGREIMDKIEALSKPTIAMINGYALGGGLELALACDIRIAAEEAQLGLPEINLGIYPGYGGTQRLTRVIGKGRALEMMMTGDRIPGKDAEKYGLVNRVVPLANLEQETRKLAEKIAKKSPISLALIKEVVNRGLDSPLLSGLALESVGWGVVFSTEDKKEGVSAFLEKREPTFKGK
modifications: His tag; strain ATCC 51363 /DSM 5348
notes: recombinant His-tagged 3-hydroxypropionyl-CoA dehydratase (EC 4.2.1.116) from Metallosphaera sedula, Uniprot A4YI89
- Km [3]: 300 µM
- kcat for 3-methylcrotonyl-CoA [3]: 10 s⁻¹

B3: phosphate butyryltransferase from Bacillus subtilis: phosphate butyryltransferase (EC 2.3.1.19) from Bacillus subtilis (strain 168), Uniprot P54530 (protein, listed as Bacillus subtilis)
chain: MKLKDLIGKASIHKNKTIAVAHAEDEEVIRAVKLAAEHLSARFLLTGDSKKLNELTSSMQGHQVEIVHANTPEESAKLAVRAVHHKTADVLMKGNVPTSVLLKAVLNRQEGLRSASVLSHVAVFDIPDFDRLMFVTDSAMNIAPSLEELRQILQNAVHVAHAVGNNMPKAAALAAVETVNPKMEATVNAAALAQMYKRGQIKGCIVDGPLALDNAVSQIAAAQKKISGDVAGNADILLVPTIEAGNILYKSLIYFAKASVAAVITGAKAPIALTSRADSAENKLYSIALAICASEEYTH
modifications: strain 168
notes: phosphate butyryltransferase (EC 2.3.1.19) from Bacillus subtilis (strain 168), Uniprot P54530
- production of 3-hydroxyisovaleric acid and ATP [4]: significant production of 3-hydroxyisovaleric acid, without simultaneous generation of ATP
- production of 3-methylcrotonic acid and ATP [5]: significant production of 3-methylcrotonic acid without a simultaneous generation of ATP
- generation of 3-hydroxyisovaleryl phosphate [6]: generation of 3-hydroxyisovaleryl phosphate in the enzyme catalyzed assay was proved by MS technique

B4: tesB Pseudomonas putida: acyl-CoA thioesterase II from Pseudomonas putida, Uniprot Q88DR1 (protein, listed as Pseudomonas putida)
chain: MSHVLDDLVDLLSLESIEENLFRGRSQDLGFRQLYGGQVLGQSLSAASQTVEDARHVHSLHGYFLRPGDASLPVVYSVDRVRDGGSFSTRRVTAIQKGQTIFTCSASFQYDEEGFEHQAQMPDVVGPENLPTEVELAHAMADQLPERIRDKVLCAKPIEIRPVTERDPFNPKPGDPVKYAWFRADGNLPDVPALHKYMLAYASDFGLLTTALLPHGKSVWQRDMQIASLDHSLWFHGNLRADQWLLYATDSPWAGNSRGFCRGSIFNQAGQLVASSSQEGLIRHRKDWA
- 3-methylcrotonic acid produced [1]: 3.1 mM
- Conversion, % [2]: 58%
